Laboratory results from patent US10189887B2, “Polypeptides and uses thereof for reducing CD95-mediated cell motility” (INSERM (INSTITUT NATIONAL DE LA SANTÉ ET DE LA RECHERCHE …, priority 2014, dated 2019).

What was measured:
[1] = system: CD95-mediated Ca^2+ response; assay: Calcium response to cl-CD95L in Jurkat cells (Fura2/FuraPE3 video imaging); format: cell-based; settings: 100 ng/ml cl-CD95L
Experimental: (§1) Cells were loaded with Fura2-AM (1 μM) at resting temperature for 30 min in Hank's Balanced Salt Solution (HBSS). After washing with HBSS, the cells were incubated for 15 min in the absence of Fura2-AM to complete de-esterification of the dye. Cells were placed in a thermostated chamber (37° C.) of an inverted epifluorescence microscope (Olympus IX70) equipped with a ×40, UApo/340-1.15 W water-immersion objective (Olympus), and fluorescence micrograph images were captured at 510 nm and at 12-bit resolution by a fast-scan camera (CoolSNAP fx Monochrome, Photometrics). To minimize UV light exposure, 4×4 binning function was used. Fura2-AM was alternately excited at 340 and 380 nm, and ratios of the resulting images (excitations at 340 and 380 nm and emission filter at 520 nm) were produced at constant intervals (5 s or 10 s according to the stimulus). […] Fluorescent images were pseudocolored using the IMD display mode in MetaFluor and assembled without further manipulation in Photoshop (Adobe). Raw data were acquired with MetaFluor and graphed in Origin (OriginLab). [Ca^2+]i was calculated using the following equation: [Ca^2+]i=Kd(R−Rmin)/(R−Rmax)×Sf2/Sf1, where Kd is the Fura2-AM dissociation constant at the two excitation wavelengths (F340/F380); Rmin is the fluorescence ratio in the presence of minimal calcium, obtained by chelating Ca^2+ with 10 mM EGTA; Rmax is the fluorescence ratio in the presence of excess calcium, obtained by treating cells with 1 μM ionomycin; Sf2 is the fluorescence of the Ca^2+-free form; and Sf1 is the fluorescence of the Ca^2+-bound form of Fura2-AM at excitation wavelengths of 380 and 340 nm, respectively. In some experiments cells were placed in a Ca^2+-free medium consisting of the HBSS described above in which CaCl2 was omitted and 100 μM EGTA was added in order to chelate residual Ca^2+ ions. This medium was added to the cells just before recording to avoid leak of the intracellular calcium stores.
T cells were loaded with Fura-PE3-AM (1 μM) at room temperature for 30 min in Hank's Balanced Salt Solution (HBSS). After washing, the cells were incubated for 15 min in the absence of Fura-PE3-AM to complete de-esterification of the dye. Cells were placed in the temperature controlled chamber (37° C.) of an inverted epifluorescence microscope (Olympus IX70) equipped with an ×40 UApo/340-1.15 W water-immersion objective (Olympus), and fluorescence micrograph images were captured at 510 nm and 12-bit resolution by a fast-scan camera (CoolSNAP fx Monochrome, Photometrics). To minimize UV light exposure, a 4×4 binning function was used. Fura-PE3 was alternately excited at 340 and 380 nm, and the ratios of the resulting images (emission filter at 520 nm) were produced at constant intervals (10 seconds). The Fura-PE3 ratio (Fratio 340/380) images were analyzed offline with Universal Imaging software, including Metafluor and Metamorph. Fratio reflects the intracellular Ca^2+ concentration changes. Each experiment was repeated 3 times, and the average of more than 20 single-cell traces was analyzed.

[2] = system: CD95-mediated Ca^2+ response; assay: Calcium response to cl-CD95L in activated PBL; format: cell-based, human; settings: human PBLs pretreated 1 μM, 1 h (positive control); 100 ng/ml cl-CD95L
Experimental: as §1
All cells were purchased from ATCC (Molsheim Cedex, France). T leukemic cell lines CEM, H9 and Jurkat were cultured in RPMI supplemented with 8% heat-inactivated FCS (v/v) and 2 mM L-glutamine at 37° C. in a 5% CO2 incubator. CEM-IRC cell expressing a low amount of plasma membrane CD95 was described in (Beneteau et al., 2007; Beneteau et al., 2008). […]
T cells were loaded with Fura-PE3-AM (1 μM) at room temperature for 30 min in Hank's Balanced Salt Solution (HBSS). […] Cells were placed in the temperature controlled chamber (37° C.) of an inverted epifluorescence microscope (Olympus IX70) equipped with an ×40 UApo/340-1.15 W water-immersion objective (Olympus), and fluorescence micrograph images were captured at 510 nm and 12-bit resolution by a fast-scan camera (CoolSNAP fx Monochrome, Photometrics). […]

Th17 cells = assay: Endothelial transmigration of CD4 T-cell subsets (Th17, Th1, Treg), Boyden chamber; format: cell-based, human
Experimental: Animal experiments were subject to ethical review by the University of Nottingham were appropriate and conducted using PPL 40/3412 in accordance with the UK Home Office guidance and under ASPA (1986). For the generation of murine T-cell subsets, spleens were removed from C57Bl/6 mice and single cell suspensions prepared. CD4^+CD62L^+ naïve cells were isolated using Miltenyi Biotec microbeads. Naïve human CD4^+ T-cells were prepared using the Miltenyi Biotec naïve CD4^+ T-cell isolation kit II, which are sorted produced a 99% pure population of CD4^+CD45RA^+ cells. Purified cells were cultured in complete IMDM media all with α-CD3 (1 μg/ml), α-CD28 (2 μg/ml), and as follows; Th1 cells IL-12 (10 ng/ml) with α-IL-4 (10 μg/ml), Th2 cells IL-4 (10 ng/ml) and α-IFN-γ (10 μg/ml), Th17 cells Il-6 (10 ng/ml), TGF-β1 (2 ng/ml), α-IFN-γ (10 μg/ml) with α-IL-4 (10 μg/ml), and Tregs IL-2 (10 ng/ml) TGF-β1 (5 ng/ml), α-IFN-γ (10 μg/ml) and α-IL-4 (10 μg/ml). Cells were converted to T-cell subsets over five days as outlined above. All cytokines were supplied by PeproTech (London, UK). Mouse CD3 (clone 2C11); human CD3 (UCHT1); mouse CD28 (37.51); human CD28 (CD28.2); mouse IL-4 (11B11); human IL-4 (MP4-25D2); mouse IFN-γ (XMG1.2); human IFN-γ B27 came from BD Pharmigen.
After hydration of the Boyden chamber membranes containing 3 μm pore size membranes (Millipore, Molsheim, France), activated T-lymphocytes (10^6) were added to the top chamber on a confluent monolayer of HUVEC in a low serum (1%)-containing medium. […] In experiments using human sera, 500 μl of serum from either healthy donors or SLE patients was added in the lower reservoir. Cells were cultured for 24 h at 37° C. in a 5% CO2 humidified incubator. Transmigrated cells were counted in the lower reservoir by flow cytometry using a standard of 2.5×10^4 fluorescent beads (Flow-count, Beckman Coulter).
Blocking antibodies were used against E-selectin and ICAM-1 in the CHEMICON® endothelial cell adhesion assay (Millipore). Briefly, after activation of the endothelial cell layer with TNF-α, anti-mouse Ig controls, anti-E-selectin or anti-ICAM-1 were added at final concentrations of 10 μg/ml. Thereafter calcein-AM-stained T-cell subsets were incubated for 24 hours and unbound cells are washed. Cells attached to the endothelium were assessed using fluorescence plate reader.

Th17 cell accumulation = assay: In vivo administration of cl-CD95L: cell accumulation in peritoneal cavity and spleen; set-up: species or system C57BL/6 mice; settings: 24 hours
Experimental: Female C57BL/6 mice (Harlan UK) aged between 8-10 weeks were placed in groups of 6 and administered IP. Twenty-four hours following injection, mice were sacrificed and periteonial cavities were washed with 5 ml of PBS/2% FCS, blood smears were prepared, and spleens were collected. Blood smears and cytospins of periteonal cells (PECs) were stained with Giemsa and differential counts performed. Single cell suspensions of spleens and PECs were prepared, cell counts performed, CD4+CD62− T-cells were isolated with Miltenyi microbeads and number of cells determined by trypan blue exclusion. For experiments where animals received TAT-mCID or control peptides, 800 μg (40 mg/kg) was injected IP 2 hrs prior to administration of cl-CD95L. All mouse experiments were performed under ethical approval from the University of Nottingham local animal ethics committee and adhering to UK Home Office guidelines under the Project License 40/3412.
Single cell suspensions of spleens and PECs were prepared as described above. RNA was extracted from CD4 T-cells using phenol/chloroform. cDNA was prepared using the Promega GO-Script Reverse Transcription Kit and used in Real-Time PCR. Briefly, cDNA samples were subject to Taqman assay performed on a Roche Lightcycler. Results are reported as expression levels were calculated using the Δct method relative to HPRT.

Molecule: C1CCC[C@H]2CCCN3CC[C@@H](CCCCCC[C@@H]4CCCN5CC[C@@H](CC1)O[C@@H]45)O[C@@H]23 [Xestospongin C, reference compound]
- calcium response to cl-CD95L ([1]; Jurkat cells pretreated 2 μM, 20 minutes): completely blocked the initial component of the calcium response
- CD95-mediated Ca^2+ response [2]: abrogated the CD95-mediated Ca^2+ response

Molecule: Ryanodine
- calcium response to cl-CD95L ([1]; Jurkat cells pretreated 20 minutes with 10 μM Ryanodine, alone or with Xestospongin C): did not reduce the initial peak but blocked the plateau phase

B1: CD95-Fc: decoy receptor for CD95L (protein)
chain: QVTDINSKGLELRKTVTTVETQNLEGLHHDGQFCHKPCPPGERKARDCTVNGDEPDCVPCQEGKEYTDKAHFSSKCRRCRLCDEGHGLEVEINCTRTQNTKCRCKPNFFCNSTVCEHCDPCTKCEHGIIKECTLTSNTKCKEEGSRSN
modifications: left off: a dimerising Fc or GST
notes: decoy receptor for CD95L
- Th17 cell migration induced by SLE sera (Th17 cells; pre-incubation of SLE sera with decoy receptor, increasing concentrations): prevented Th17 cell migration in a dose-dependent manner

B2: cl-CD95L: recombinant homotrimeric metalloprotease-cleaved CD95L from supernatant of transfected HEK 293 cells (protein)
chain: QIGHPSPPPEKKELRKVAHLTGKSNSRSMPLEWEDTYGIVLLSGVKYKKGGLVINETGLYFVYSKVYFRGQSCNNLPLSHKVYMRNSKYPQDLVMMEGKMMSYCTTGQMWARSSYLGAVFNLTSADHLYVNVSELSLVNFEESQTFFGLYKL
- total cell counts from the PEC and spleen (Th17 cell accumulation; single IP dose cl-CD95L (200 ng) versus vehicle): significant increase in the number of lymphocytes
- Th17 lineage markers (IL-17, IL-23R, CCR6) in recruited activated CD4+ T cells, Q-PCR (Th17 cell accumulation; single IP dose cl-CD95L (200 ng)): induced the recruitment of Th17 cells
- transmigration of CD4 T-cell subsets (Th17 cells; Th1 and Th17 versus Th0 and Th2, cl-CD95L 200 ng/ml): more efficient to promote the transmigration of Th1 and Th17 lymphocytes
- endothelial transmigration of Th17 T cells (Th17 cells; human Th17 cells, presence or absence of cl-CD95L): enhanced endothelial transmigration of Th17 T cells
- endothelial transmigration of Treg cells (Th17 cells; human regulatory T-cells, presence or absence of cl-CD95L): failed to induce significant Treg transmigration
